According to publication PMC12482648, “G-quadruplex structural motifs modulate protein–RNA interactions within the transcriptome”:

Tests used:
[1] = target: T1, FUS C-terminal RNA-binding module (His6-FUS) (UniProt P35637 269-526); experiment: EMSA; 150 mM KCl; supershift with anti-His; EMSA: 1 uM RNA, 0/0.1/1/5 uM His6-FUS, 50 mM HEPES-KOH (or HEPES-LiOH) pH 7.4, 150 mM KCl (or LiCl), 200 ng BSA, 2 mM EDTA, 2 mM DTT, 5% glycerol, 30 min 30 C; conditions: protein: recombinant, tags: His6 (pET28a-TEV), label: none (SYBR Gold stain)
[2] = target: T1, FUS C-terminal RNA-binding module …; experiment: EMSA; 150 mM KCl; EMSA: 1 uM RNA, 0/0.1/1/5 uM His6-FUS, 50 mM HEPES-KOH (or HEPES-LiOH) pH 7.4, 150 mM KCl (or LiCl), 200 ng BSA, 2 mM EDTA, 2 mM DTT, 5% glycerol, 30 min 30 C; conditions: protein: recombinant; tags: His6 (pET28a-TEV); label: none (SYBR Gold stain); none (non-G4)

T1 sequence (P35637 269-526): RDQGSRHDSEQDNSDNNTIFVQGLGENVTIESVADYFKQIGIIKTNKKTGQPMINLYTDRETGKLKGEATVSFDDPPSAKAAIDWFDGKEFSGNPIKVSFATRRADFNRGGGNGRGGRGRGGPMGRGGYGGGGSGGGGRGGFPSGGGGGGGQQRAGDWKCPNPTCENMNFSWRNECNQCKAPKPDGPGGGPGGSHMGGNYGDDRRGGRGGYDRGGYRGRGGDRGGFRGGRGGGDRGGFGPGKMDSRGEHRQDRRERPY

B1: 25COPS9 WT (structured_RNA)
RNA: UGGUGCGCGGGUCCCGGGGAGGGGA
B1: binds ([1]; G4 (in K+)).

B2: 28RPL23A mutant (ssRNA)
RNA: AGUGUGAGUGUGUGUGUGCAGUGAGUGU
B2: no binding [2].

B3: TERRA WT (structured_RNA)
RNA: UUAGGGUUAGGGUUAGGGUUAGGG
B3: binds ([1]; intramolecular G4 (in K+)).

B4: 28RPL23A WT (structured_RNA)
RNA: AGGGGGAGGGUGUGGGGGCAGUGAGGGU
B4: binds ([1]; intramolecular G4 (in K+)).

B5: 25COPS9 mutant (ssRNA)
RNA: UGUUGCGCGUGUCCCGUGGAGUGGA
B5: no binding [2].
